Reference: US10350168B2, “Dermal delivery compositions comprising active agent-calcium phosphate particle complexes and methods of using the same” (Laboratory Skin Care, Inc., priority 2009, dated 2019)

Test: Lactoferrin binding to calcium phosphate particles (UV 280 nm)
Assay type: physicochemical
Settings: binding concentration of 2.99 mg/ml
Protocol: • Calcium phosphate particles • Lactoferrin from human milk, Sigma Aldrich, Catalog No. 0520-100MG Methods: • i. Lactoferrin solution was prepared in water at 4.98 mg/ml. • ii. 0.3 g of Calcium phosphate particles was suspended in 1.2 ml of water and mixed for 5 min. • iii. 1.8 ml of Lactoferrin solution at 4.98 mg/ml was added to achieve the final concentrations at 3.0 mg/ml, and the final volume was 3 ml. • iv. The suspension was mixed for 30 min, and centrifuged at 5000×g for 10 min in a bench top centrifuge. • v. The absorbance of supernatant was measured at 280 nm (the detection wavelength for Lactoferrin) by UV spectrophotometer. • vi. […] Lactoferrin bound was calculated by subtracting the amount of the Lactoferrin detected in the supernatant from the total initial amount in the binding suspension.

B1: Lactoferrin: Lactoferrin from human milk, Sigma Aldrich (protein, UniProt P02788 20-710, looked up)
Lactotransferrin: GRRRSVQWCAVSQPEATKCFQWQRNMRKVRGPPVSCIKRDSPIQCIQAIAENRADAVTLDGGFIYEAGLAPYKLRPVAAEVYGTERQPRTHYYAVAVVKKGGSFQLNELQGLKSCHTGLRRTAGWNVPIGTLRPFLNWTGPPEPIEAAVARFFSASCVPGADKGQFPNLCRLCAGTGENKCAFSSQEPYFSYSGAFKCLRDGAGDVAFIRESTVFEDLSDEAERDEYELLCPDNTRKPVDKFKDCHLARVPSHAVVARSVNGKEDAIWNLLRQAQEKFGKDKSPKFQLFGSPSGQKDLLFKDSAIGFSRVPPRIDSGLYLGSGYFTAIQNLRKSEEEVAARRARVVWCAVGEQELRKCNQWSGLSEGSVTCSSASTTEDCIALVLKGEADAMSLDGGYVYTAGKCGLVPVLAENYKSQQSSDPDPNCVDRPVEGYLAVAVVRRSDTSLTWNSVKGKKSCHTAVDRTAGWNIPMGLLFNQTGSCKFDEYFSQSCAPGSDPRSNLCALCIGDEQGENKCVPNSNERYYGYTGAFRCLAENAGDVAFVKDVTVLQNTDGNNNEAWAKDLKLADFALLCLDGKRKPVTEARSCHLAMAPNHAVVSRMDKVERLKQVLLHQQAKFGRNGSDCPDKFCLFQSETKNLLFNDNTECLARLHGKTTYEKYLGPQYVAGITNLKKCSTSPLLEACEFLRK
**Q.** For B1, which “Lactoferrin bound to calcium phosphate particles” value is on record?
**A.** Its value is 29.63 mg/g.
